Assay results from US20070172423A1, “Composition and method for modulating vasculogenesis for angiogenesis” (priority 1998, published 2007).

How the values were obtained:
[1] = tested on: human bone marrow-derived AC133+CD34+ cells; test: Human bone marrow cell adherence and differentiation assay; assay type: cell-based; conditions: 50 ng/ml
Experimental: Enriched human BM derived AC133+CD34+ cells (Clonetics) at 10^5/ml were cultured for 3 days in HPGM (Clonetics) in a 6-well plate (Becton Dickinson). Cells were then seeded in collagen coated 12-well plates in EBM (Clonetics) medium containing 4% FCS and VEGF165 (R&D Systems) or PDGF-CC (50 ng/ml each). Growth factors were added every two days and media were refreshed at 75% every four days. For adherence assay, 2.5×10^4 of non-adherent cells/ml were cultured in the same condition on chamber slides coated with collagen, or in 96-well plate coated with 0.3% gelatin in PBS. Cells were then washed three times with PBS, fixed and stained with May-Grünwald Giemsa (Sigma) after two weeks of culture on chamber slides (Becton Dickinson). The number of viable cells was estimated by ATP quantification using cellTiter-glo luminescent cell viability assay (Promega) according to the manufacturer's instructions. For cell surface marker staining, cells (2×10^4/well) cultured on collagen-coated culture slides for two or four weeks were fixed (45 min, 25° C.) and permeabilized (45 min, 25° C.) using a Intrastain Kit (DAKO), and then labeled with CD31-FITC (Becton Dickinson), CD144-FITC (Pharmingen), CD34-FITC (Becton Dickinson) or SMC-Actin CY3 (Sigma). Single or double-labeled cells were analyzed using laser confocal immunofluorescence microscopy.
Upon stimulation by growth factors or cytokines, bone marrow stem/progenitor cells can differentiate into ECs and SMCs and thereby contribute to angio/arteriogenesis (Orlic et al., Nature, 2001 410:701-5; Kawamoto et al., Circulation, 2001 103:634-7; Asahara et al., Circ Res, 1999 85:221-8). The potential role of PDGF-CC in the differentiation of bone marrow progenitors into vascular cells has, however, not been investigated thus far. We therefore cultured human bone marrow-derived AC133^+CD34^+ cells—a population enriched for stem/progenitor cells (Miraglia et al., Blood, 1997 90:5013-21; Yu et al., J Biol Chem, 2002 277:20711-6; Donnelly et al., Leuk Lymphoma, 2001 40:221-34)—and stimulated them with PDGF-CC, using VEGF as a control (50 ng/ml each).

[2] = tested on: human microvascular endothelial cells (HMVEC); test: Cell migration assay, HMVEC; assay type: cell-based; conditions: wounded monolayer, 20 hours, serum-free medium
Experimental: Cell migration assays were performed on growth arrested confluent HMVEC, BAEC or hSMC cells. Cell monolayers were wounded with a rubber policeman and washed with serum-free medium. Dishes were then incubated for 20 hours in serum-free medium containing VEGF165, PDGF-AA, (R&D Systems, Minneapolis USA) or PDGF-CC. Each assay included two dishes per condition and was repeated three times independently. Cells were photographed at 40× magnification, and migration percentage corresponding to the ratio between area of the cells and the total area of the wound (Biocom visiol@b 2000 version 4.52, San Diego). For HMVEC proliferation assay, cells were seeded in 96-well plates (5 wells per condition), and incubated with VEGF, PDGF-AA, or PDGF-CC (50 ng/ml) after serum starvation. After 7 days, viable cells were counted using the cell Titer-glo luminescent cell viability assay. For NIH-3T3 and hSMC proliferation assay, cells cultured in 96-well plates were serum-starved overnight, followed by treatment with growth factors at different concentrations. Two days later, cell numbers were counted and proliferation percentage calculated, using cells cultured in medium containing 10% serum as control. Aortic ring assay was performed as described 51. […] Aortic rings were analysed at day 9 of culturing. […]

B1: PDGF-CC: recombinant human PDGF-CC core domain homodimer, residues 230-345 of full-length PDGF-C (SEQ ID NO:40), produced in baculovirus infected insect cells (protein)
chain: GRKSRVVDLNLLTEEVRLYSCTPRNFSVSIREELKRTDTIFWPGCLLVKRCGGNCACCLHNCNECQCVPSKVTKKYHEVLQLRPKTGVRGLHKSLTDVALEHHEECDCVCRGSTGG
modifications: homodimer; PDGF-C core domain
SMA positive cells ([1]; four weeks): > 95% | expression of CD144 and CD31 ([1]; four weeks): lost their expression | adherence of AC133+CD34+ cells ([1]; two weeks of stimulation): enhanced | expression of EC surface markers CD144 (VE-cadherin) and CD31 (PECAM) ([1]; two weeks of stimulation): induced | expression of smooth muscle cell marker SMA ([1]; two weeks of stimulation): induced | migration of HMVECs [2]: stimulated
